We go through two molecules from paper PMC10932109, “Solution Structures of Two Different FRP-OCP Complexes as Revealed via SEC-SANS” (International Journal of Molecular Sciences, 2024).

Data set [1] has as its target OCPO (Synechocystis sp. PCC 6803) (UniProt P74102). Particulars: cited from earlier work.
The target of data set [2] is OCPR (Synechocystis sp. PCC 6803) (UniProt P74102). Particulars: cited from earlier work.
Data set [3] concerns the molecule itself. Put plainly: SEC + other: SANS; in-line SEC-SANS at D22 (ILL); Superdex 200 Increase 10/300 GL; 25 °C; 250 µL injected at about 5 mg/mL total protein; two fractions (high MW, low MW) analysed separately; stoichiometries assigned from dimensions, DAMMIF shapes and Pepsi-SANS FlexFit models.
For data set [4], the target named is T1, orange carotenoid protein lacking the N-terminal extension (^∆NTEOCP^O) (Synechocystis sp. PCC 6803, UniProt P74102 13-317).
T1 construct: glycine left from the human rhinovirus 3C protease site (LEVLFQ/GP) after cleavage; the P of GP is read as Pro13 of OCP; Orange carotenoid protein (OCP), Synechocystis sp; PCC 6803, slr1963, from Pro13 (P-NTLAA...) to the C-terminus; the N-terminal extension is removed with the His-tag by 3C cleavage; Gene optimised for E. coli, vector pRSFDuet-1; also called ^ΔNTEOCP^O; compact mutant of OCP …
T1 sequence: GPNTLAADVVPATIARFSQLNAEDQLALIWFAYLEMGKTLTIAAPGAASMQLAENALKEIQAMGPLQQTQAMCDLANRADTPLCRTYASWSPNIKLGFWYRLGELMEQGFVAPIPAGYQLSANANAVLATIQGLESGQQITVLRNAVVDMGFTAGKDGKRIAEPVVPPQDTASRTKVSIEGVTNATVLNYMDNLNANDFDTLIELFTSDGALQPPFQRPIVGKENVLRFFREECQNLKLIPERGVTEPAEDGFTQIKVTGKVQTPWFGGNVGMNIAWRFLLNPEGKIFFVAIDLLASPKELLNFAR
The data set is described as above. The note with it: both partners purified.

“And” between values parts separate entries of the source, which are not always exact repeats. Identical values can stand only once.

One may read the Kd as the free concentration of one partner at which half of the binding sites on the other are occupied at equilibrium, for simple one-to-one binding. As usually defined, the stoichiometry N is the number of molecules, sites or subunits per partner or assembly.

As to FRP (from UniProt P74103), the dissociation constant (Kd) in data set [1] is 35 µM; in data set [2], 3 µM.

B1: fluorescence recovery protein (FRP), wild type (natural protein, Synechocystis sp. PCC 6803)
chain: LQTAEAPWSQAETQSAHALFRKAYQRELDGLLATVQAQASQITQIDDLWKLHDFLSAKRHEIDGKYDDRQSVIIFVFAQLLKEGLVQAEELTFLAADKQSKIKALARL
notes: Fluorescence recovery protein (FRP), Synechocystis sp; PCC 6803, slr1964, wild type; also called wild-type FRP; dimeric FRP; source: E. coli, purified (Superdex 200 Increase 10/300, phosphate-buffered saline)
Turning to B1, the binding result in data set [3] is given as “binds”. Besides, in data set [4], the “stoichiometry N” value is 2 FRP per ^∆NTEOCP^O (2:1 complex, low MW fraction) and 1 FRP per ^∆NTEOCP^O (2:2 complex, high MW fraction).
